B2: SAGE1 (Sarcoma antigen 1), full-length protein in cells (other)
chain: MQASPLQTSQPTPPEELHAAAYVFTNDGQQMRSDEVNLVATGHQSKKKHSRKSKRHSSSKRRKSMSSWLDKQEDAAVTHSICEERINNGQPVADNVLSTAPPWPDATIAHNIREERMENGQSRTDKVLSTAPPQLVHMAAAGIPSMSTRDLHSTVTHNIREERMENGQPQPDNVLSTGPTGLINMAATPIPAMSARDLYATVTHNVCEQKMENVQPAPDNVLLTLRPRRINMTDTGISPMSTRDPYATITYNVPEEKMEKGQPQPDNILSTASTGLINVAGAGTPAISTNGLYSTVPHNVCEEKMENDQPQPNNVLSTVQPVIIYLTATGIPGMNTRDQYATITHNVCEERVVNNQPLPSNALSTVLPGLAYLATADMPAMSTRDQHATIIHNLREEKKDNSQPTPDNVLSAVTPELINLAGAGIPPMSTRDQYATVNHHVHEARMENGQRKQDNVLSNVLSGLINMAGASIPAMSSRDLYATITHSVREEKMESGKPQTDKVISNDAPQLGHMAAGGIPSMSTKDLYATVTQNVHEERMENNQPQPSYDLSTVLPGLTYLTVAGIPAMSTRDQYATVTHNVHEEKIKNGQAASDNVFSTVPPAFINMAATGVSSMSTRDQYAAVTHNIREEKINNSQPAPGNILSTAPPWLRHMAAAGISSTITRDLYVTATHSVHEEKMTNGQQAPDNSLSTVPPGCINLSGAGISCRSTRDLYATVIHDIQEEEMENDQTPPDGFLSNSDSPELINMTGHCMPPNALDSFSHDFTSLSKDELLYKPDSNEFAVGTKNYSVSAGDPPVTVMSLVETVPNTPQISPAMAKKINDDIKYQLMKEVRRFGQNYERIFILLEEVQGSMKVKRQFVEFTIKEAARFKKVVLIQQLEKALKEIDSHCHLRKVKHMRKR
notes: Endogenous protein in HuTu 80, K562, U2OS and KYSE30 cells (IP-MS); also called endogenous SAGE1; ectopically expressed SAGE1

Columns and labels:
[1] = molecular target: T1, INTS3CTD (C-terminal domain of INTS3, residues 572-978) (human, UniProt Q68E01 573-979); experiment: ITC
T1 construct: also called INTS3CTD dimer
Protocol: The equilibrium dissociation constant of the SAGE1I3BD-INTS3CTD interaction was determined using a MicroCal iTC200 calorimeter (Malvern). The binding enthalpy was measured at 16° C. in 25 mM Tris-HCl pH 8.0, 150 mM NaCl and 5 mM MgCl2. Two independent experiments were performed. ITC data were subsequently analyzed and fitted using Origin 7 software (OriginLab).
All statistical tests of experimental results were performed using the GraphPad Prism 7 unless noted. The statistical significance was calculated via unpaired two-tailed Student's t test. The dissociation constants (Kd) in ITC experiments were calculated using the Origin 7 software as mean±standard error from two independent experiments with a single site-specific binding model. The statistical analysis of in vivo experiments data was performed using nonparametric Mann-Whitney test. Results were represented as mean±standard deviation unless noted and p<0.05 was considered statistically significant.

[2] = molecular target: INTS3 (integrator complex subunit 3), endogenous full-length protein (human, UniProt Q68E01 2-1043); experiment: IP-MS with anti-INTS3 antibody in SAGE1-overexpressing 293T cells
INTS3 (integrator complex subunit 3), endogenous full-length protein, sequence (Q68E01 2-1043 limits assumed, one chain of several): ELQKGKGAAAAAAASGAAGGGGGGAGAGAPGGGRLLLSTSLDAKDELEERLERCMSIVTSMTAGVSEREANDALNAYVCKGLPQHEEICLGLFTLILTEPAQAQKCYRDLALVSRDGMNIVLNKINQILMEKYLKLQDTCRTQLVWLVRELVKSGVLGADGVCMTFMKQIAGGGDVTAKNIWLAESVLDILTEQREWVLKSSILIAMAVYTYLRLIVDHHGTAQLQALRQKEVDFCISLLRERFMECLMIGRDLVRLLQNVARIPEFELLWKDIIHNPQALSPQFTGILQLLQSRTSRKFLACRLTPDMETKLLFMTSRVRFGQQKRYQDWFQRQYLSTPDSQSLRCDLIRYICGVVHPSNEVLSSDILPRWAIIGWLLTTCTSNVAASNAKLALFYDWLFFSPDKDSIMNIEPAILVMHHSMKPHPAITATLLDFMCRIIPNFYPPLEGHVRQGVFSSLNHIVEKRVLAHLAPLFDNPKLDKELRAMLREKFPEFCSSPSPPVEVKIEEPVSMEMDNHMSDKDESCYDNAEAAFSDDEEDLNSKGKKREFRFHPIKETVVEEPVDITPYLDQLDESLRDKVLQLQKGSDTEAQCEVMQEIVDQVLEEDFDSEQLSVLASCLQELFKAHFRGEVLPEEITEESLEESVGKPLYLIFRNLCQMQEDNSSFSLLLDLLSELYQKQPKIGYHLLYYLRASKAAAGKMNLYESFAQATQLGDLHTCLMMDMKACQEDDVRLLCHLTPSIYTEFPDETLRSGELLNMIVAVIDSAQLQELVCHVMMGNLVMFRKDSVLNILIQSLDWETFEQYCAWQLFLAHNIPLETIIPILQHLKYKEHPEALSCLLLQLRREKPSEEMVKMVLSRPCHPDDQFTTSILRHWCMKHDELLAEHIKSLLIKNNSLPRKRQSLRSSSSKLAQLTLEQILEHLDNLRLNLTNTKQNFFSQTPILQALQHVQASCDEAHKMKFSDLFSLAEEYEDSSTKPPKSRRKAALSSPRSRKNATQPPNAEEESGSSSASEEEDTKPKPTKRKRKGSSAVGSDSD
Protocol: Given that SAGE1I3BD highly resembles INTS6I3BD, it is likely that they interact with INTS3CTD in a mutually exclusive manner. To test this idea, we mixed purified INTS3CTD-INTS6I3BD complex with GST-tagged SAGE1I3BD and conducted a GST-pull-down analysis.
For IP, 1×10^7 cells were lysed in lysis buffer (20 mM Tris-HCl, 150 mM NaCl, 10% Glycerol, 0.5% TritonX-100, 1 mM EDTA, 1 mM EGTA, pH7.4) supplemented with protease inhibitor cocktail (Sigma-Aldrich, #B14001), incubated in 4° C. for 10 min and sonicated by Bioruptor Plus (Diagenode) (5-10% amplitude/power, ON 5 sec-OFF 5 sec) for 1 min. After centrifugation (14,000 rpm, 15 min, 4° C., 1 mg of supernatants were incubated with 5 μg of rabbit anti-SAGE1 polyclonal antibody (Novus Biologicals, #NBP1-84355, or Abcam, #ab233388) and rabbit anti-
INTS3 polyclonal antibody (Novus Biologicals, #NBP1-19091) for 16 hours respectively. Next day, 20 μL of Protein G beads (Millipore, #LSKMAGG02) were added into each tube and incubated for 3 more hours. Then beads were harvested and washed for three times with lysis buffer and eluted by 0.2 M Glycine (pH 2.2).

[3] = molecular target: T2, CBP (CRBP-binding protein) (UniProt Q92793 2-2442, limits assumed); experiment: IP of the endogenous SAGE1 complex with anti-SAGE1 antibody (HuTu 80 and other SAGE1-expressing cancer cell lines), MS
T2 construct: also called CREBBP
T2 sequence (Q92793 2-2442 limits assumed): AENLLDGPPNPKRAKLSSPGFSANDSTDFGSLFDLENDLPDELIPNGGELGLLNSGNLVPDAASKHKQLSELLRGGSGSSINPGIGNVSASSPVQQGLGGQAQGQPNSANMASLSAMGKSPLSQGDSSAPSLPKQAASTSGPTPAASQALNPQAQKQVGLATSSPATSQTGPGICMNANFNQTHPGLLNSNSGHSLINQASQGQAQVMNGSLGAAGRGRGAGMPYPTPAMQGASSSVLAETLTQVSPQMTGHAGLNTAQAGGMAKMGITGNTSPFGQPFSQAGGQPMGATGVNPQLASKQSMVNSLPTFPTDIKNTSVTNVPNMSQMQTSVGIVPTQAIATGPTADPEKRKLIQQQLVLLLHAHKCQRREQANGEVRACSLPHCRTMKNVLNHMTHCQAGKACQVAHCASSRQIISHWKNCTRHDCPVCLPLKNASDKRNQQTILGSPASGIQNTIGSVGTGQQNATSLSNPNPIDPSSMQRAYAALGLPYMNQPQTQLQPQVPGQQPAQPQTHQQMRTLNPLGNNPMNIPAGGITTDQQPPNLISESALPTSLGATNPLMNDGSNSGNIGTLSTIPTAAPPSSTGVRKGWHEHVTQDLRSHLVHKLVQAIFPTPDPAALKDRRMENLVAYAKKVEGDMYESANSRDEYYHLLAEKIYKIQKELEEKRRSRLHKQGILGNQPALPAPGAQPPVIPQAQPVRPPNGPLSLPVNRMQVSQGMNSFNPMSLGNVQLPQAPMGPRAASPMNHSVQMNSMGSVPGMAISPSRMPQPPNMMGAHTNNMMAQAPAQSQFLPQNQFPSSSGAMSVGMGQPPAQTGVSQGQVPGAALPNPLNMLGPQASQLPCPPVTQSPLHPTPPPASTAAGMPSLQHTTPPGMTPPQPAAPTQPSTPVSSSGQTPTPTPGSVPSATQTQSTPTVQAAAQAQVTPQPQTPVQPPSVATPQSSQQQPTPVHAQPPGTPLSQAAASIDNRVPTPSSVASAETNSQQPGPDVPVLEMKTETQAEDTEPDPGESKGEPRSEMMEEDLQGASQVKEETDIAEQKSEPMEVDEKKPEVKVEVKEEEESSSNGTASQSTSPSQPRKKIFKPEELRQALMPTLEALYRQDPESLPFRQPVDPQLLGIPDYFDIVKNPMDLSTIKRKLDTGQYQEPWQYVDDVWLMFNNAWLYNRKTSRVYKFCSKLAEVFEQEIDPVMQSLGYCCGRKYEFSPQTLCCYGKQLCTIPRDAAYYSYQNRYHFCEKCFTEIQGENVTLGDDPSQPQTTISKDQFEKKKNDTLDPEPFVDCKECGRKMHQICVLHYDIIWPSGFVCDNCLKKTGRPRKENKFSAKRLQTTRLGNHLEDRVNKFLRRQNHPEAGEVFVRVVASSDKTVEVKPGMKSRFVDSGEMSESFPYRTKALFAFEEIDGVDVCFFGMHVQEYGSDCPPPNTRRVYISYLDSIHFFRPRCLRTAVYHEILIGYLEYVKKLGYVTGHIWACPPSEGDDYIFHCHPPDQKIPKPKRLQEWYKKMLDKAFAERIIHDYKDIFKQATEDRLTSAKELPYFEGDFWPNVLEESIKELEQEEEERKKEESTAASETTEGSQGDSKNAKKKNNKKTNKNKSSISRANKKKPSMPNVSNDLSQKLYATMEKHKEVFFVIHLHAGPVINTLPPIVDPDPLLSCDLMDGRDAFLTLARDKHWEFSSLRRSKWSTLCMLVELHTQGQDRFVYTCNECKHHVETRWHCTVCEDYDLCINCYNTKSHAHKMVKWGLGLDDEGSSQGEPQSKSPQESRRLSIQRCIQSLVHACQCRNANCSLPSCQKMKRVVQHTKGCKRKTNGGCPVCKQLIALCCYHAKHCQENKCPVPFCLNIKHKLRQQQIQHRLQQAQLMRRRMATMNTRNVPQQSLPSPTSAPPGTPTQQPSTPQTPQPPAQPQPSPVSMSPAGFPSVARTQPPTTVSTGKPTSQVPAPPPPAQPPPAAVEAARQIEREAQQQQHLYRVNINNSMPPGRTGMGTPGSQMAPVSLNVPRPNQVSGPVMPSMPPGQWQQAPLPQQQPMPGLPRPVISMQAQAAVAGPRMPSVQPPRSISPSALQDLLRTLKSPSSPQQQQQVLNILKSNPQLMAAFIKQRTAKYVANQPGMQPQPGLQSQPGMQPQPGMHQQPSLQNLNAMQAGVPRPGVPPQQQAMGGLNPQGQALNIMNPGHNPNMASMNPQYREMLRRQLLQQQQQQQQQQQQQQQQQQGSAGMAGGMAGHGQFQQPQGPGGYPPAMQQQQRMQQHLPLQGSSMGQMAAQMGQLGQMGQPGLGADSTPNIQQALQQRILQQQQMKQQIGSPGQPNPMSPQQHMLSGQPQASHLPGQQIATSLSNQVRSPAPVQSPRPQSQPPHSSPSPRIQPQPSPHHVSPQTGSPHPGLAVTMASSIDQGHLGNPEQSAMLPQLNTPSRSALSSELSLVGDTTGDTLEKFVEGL
Source text: (§1) To gain mechanistic insight into SAGE1 function in tumorigenesis, we performed a proteomic analysis of the endogenous SAGE1 complex pulled down in HuTu 80 cells by an anti-SAGE1 antibody. The complex was resolved by SDS-PAGE, visualized by silver staining, and subjected to MS analysis (FIG. 6A and FIGS. 14A-14D). A number of proteins previously linked to transcriptional regulation were reproducibly identified as high-confidence SAGE1 interactors, including CBP (CRBP-binding protein), TLE (Groucho/Transducin-Like Enhancer of Split) proteins, INTS3 (a component of the Integrator complex) and INTS3-binding partners NABP (Nucleic Acid Binding Protein) and INIP (INTS3 and NABP interacting protein) (FIG. 6B). […] The interactions between SAGE1 and these proteins were further confirmed by co-immunoprecipitation (co-IP) analysis (FIG. 6C and FIG. 6D).
(§2) For IP, 1×10^7 cells were lysed in lysis buffer (20 mM Tris-HCl, 150 mM NaCl, 10% Glycerol, 0.5% TritonX-100, 1 mM EDTA, 1 mM EGTA, pH7.4) supplemented with protease inhibitor cocktail (Sigma-Aldrich, #B14001), incubated in 4° C. for 10 min and sonicated by Bioruptor Plus (Diagenode) (5-10% amplitude/power, ON 5 sec-OFF 5 sec) for 1 min. After centrifugation (14,000 rpm, 15 min, 4° C., 1 mg of supernatants were incubated with 5 μg of rabbit anti-SAGE1 polyclonal antibody (Novus Biologicals, #NBP1-84355, or Abcam, #ab233388) and rabbit anti- […]

[4] = molecular target: B2; experiment: as above
Source text: as §1, §2

B1: mutant SAGE1I3BD (other)
chain: AMAKKINDDIKYQLAKEVRRAGANYERIFILLEEVQGSMKVKRQFVEFTIKEAAAAAKVVLIQQLEKALKEIDSHCHLRKVKHMRKR
notes: also called mutant SAGE1I3BD (alanine substitutions of six key interface residues)
[1]
  binding result: no binding

## B2
[2]
  binding result: binds
[3]
  binding result: binds

B3: INIP (INTS3 and NABP interacting protein) (other, UniProt Q9NRY2 2-104, looked up)
chain: AANSSGQGFQNKNRVAILAELDKEKRKLLMQNQSSTNHPGASIALSRPSLNKDFRDHAEQQHIAAQQKAALQHAHAHSSGYFITQDSAFGNLILPVLPRLDPE
[4]
  binding result: binds

Source: patent US20230031980A1 (SHANGHAI NINTH PEOPLE S HOSPITAL SHANGHAI JIAO TONG …, published 2023)
